{
  "source": "paper doi:10.1101/859678",
  "about": "(bioRxiv, 2019)",
  "proteins": {"B1": {"name": "Arabidopsis thaliana Golgi anti-apoptotic protein 3 (AtGAAP3) (natural protein, UniProt Q9ZQX7-1 1-248, looked up)", "chain": "MYQWNLPYRKDDVETGVSSRRPLLYPAMHENPELRWGFIRKVYSIIAFQLLATVAVAATVVTVRPIALFFATTGLGLALYIVIIITPLIVLCPLYYYHQKHPVNYLLLGIFTLALAFVVGLTCAFTNGKVILESVILTSVVVLSLTLYTFWAARKGYDFNFLGPFLFGALTVLIFFALIQILFPLGRVSVMIYGCLVSIIFCGYIVYDTDNLIKRHTYDEYIWAAVSLYLDIINLFLYLLTVLRALQR"}},
  "molecular_target": "the molecule itself",
  "assay": "SEC",
  "data": [
    {"protein": "B1", "values": [
      {"measurement": "binding result", "value": "binds"}
    ]}
  ]
}
